Measured values published in the supplement of paper PMC5998384.

What was measured:
[1] = tested on: HeLa Kyoto; assay: thermal stability score vs G1/S (z-score of summed log2 fold changes over temperatures); higher = more thermally stable than in G1/S
[2] = tested on: HeLa Kyoto; assay: solubility in G1/S (NP-40 vs SDS abundance) (log2 ratio); higher = more soluble; details: cell cycle stage: G1/S
[3] = tested on: HeLa Kyoto; assay: solubility change mitosis vs G1/S (difference of NP-40 vs SDS log2 ratios) (log2 ratio difference); higher = more soluble in mitosis
[4] = cell cycle stage: early G1 (4.5 h after nocodazole release)
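Wherever solubility change mitosis vs G1/S (difference of NP-40 vs SDS log2 ratios) is given: synchronized HeLa Kyoto cells (double thymidine block for G1/S, nocodazole release for mitosis), protein amounts in NP-40 versus SDS lysates quantified by mass spectrometry, three biological replicates.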
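Wherever solubility in G1/S (NP-40 vs SDS abundance) is given: HeLa Kyoto cells arrested at G1/S by double thymidine block, proteins quantified by TMT10plex mass spectrometry in mild NP-40 versus SDS extracts, three biological replicates.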
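Wherever thermal stability score vs G1/S (z-score of summed log2 fold changes over temperatures) is given: synchronized HeLa Kyoto cells, proteins quantified by TMT10plex mass spectrometry, three biological replicates, mitosis taken 0.5 h after nocodazole release, G1/S directly after double thymidine block.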

Row | Substance | thermal stability score [1, 4] | thermal stability score ([1]; cell cycle stage: mitosis) | solubility in G1/S (log2) [2] | solubility change mitosis (log2) [3]
1 | MDSQELKTLINYYCQERYFHHVLLVASEGIKRYGSDPVFRFYHAYGTLMEGKTQEALREFEAIKNKQDVSLCSLLALIYAHKMSPNPDREAILESDARVKEQRKGAGEKALYHAGLFLWHIGRHDKAREYIDRMIKISDGSKQGHVLKAWLDITRGKEPYTKKALKYFEEGLQDGNDTFALLGKAQCLEMRQNYSGALETVNQIIVNFPSFLPAFVKKMKLQLALQDWDQTVETAQRLLLQDSQNVEALRMQALYYVCREGDIEKASTKLENLGNTLDAMEPQNAQLFYNITLAFSRTCGRSQLILQKIQTLLERAFSLNPQQSEFATELGYQMILQGRVKEALKWYKTAMTLDETSVSALVGFIQCQLIEGQLQDADQQLEFLNEIQQSIGKSAELIYLHAVLAMKKNKRQEEVINLLNDVLDTHFSQLEGLPLGIQYFEKLNPDFLLEIVMEYLSFCPMQPASPGQPLCPLLRRCISVLETVVRTVPGLLQTVFLIAKVKYLSGDIEAAFNNLQHCLEHNPSYADAHLLLAQVYLSQEKVKLCSQSLELCLSYDFKVRDYPLYHLIKAQSQKKMGEIADAIKTLHMAMSLPGMKRIGASTKSKDRKTEVDTSHRLSIFLELIDVHRLNGEQHEATKVLQDAIHEFSGTSEEVRVTIANADLALAQGDIERALSILQNVTAEQPYFIEAREKMADIYLKHRKDKMLYITCFREIAERMANPRSFLLLGDAYMNILEPEEAIVAYEQALNQNPKDGTLASKMGKALIKTHNYSMAITYYEAALKTGQKNYLCYDLAELLLKLKWYDKAEKVLQHALAHEPVNELSALMEDGRCQVLLAKVYSKMEKLGDAITALQQARELQARVLKRVQMEQPDAVPAQKHLAAEICAEIAKHSVAQRDYEKAIKFYREALVHCETDNKIMLELARLYLAQDDPDSCLRQCALLLQSDQDNEAATMMMADLMFRKQDYEQAVFHLQQLLERKPDNYMTLSRLIDLLRRCGKLEDVPRFFSMAEKRNSRAKLEPGFQYCKGLYLWYTGEPNDALRHFNKARKDRDWGQNALYNMIEICLNPDNETVGGEVFENLDGDLGNSTEKQESVQLAVRTAEKLLKELKPQTVQGHVQLRIMENYCLMATKQKSNVEQALNTFTEIAASEKEHIPALLGMATAYMILKQTPRARNQLKRIAKMNWNAIDAEEFEKSWLLLADIYIQSAKYDMAEDLLKRCLRHNRSCCKAYEYMGYIMEKEQAYTDAALNYEMAWKYSNRTNPAVGYKLAFNYLKAKRYVDSIDICHQVLEAHPTYPKIRKDILDKARASLRP [TTC21B] | 1.06 | 0.205 | -0.116 | -0.211
2 | MLVGQGAGLLGPAVVTAAVVLLLSGVGPAHGSEDIVVGCGGFVKSDVEINYSLIEIKLYTKHGTLKYQTDCAPNNGYFMIPLYDKGDFILKIEPPLGWSFEPTTVELHVDGVSDICTKGGDINFVFTGFSVNGKVLSKGQPLGPAGVQVSLRNTGTEAKIQSTVTQPGGKFAFFKVLPGDYEILATHPTWALKEASTTVRVTNSNANAASPLIVAGYNVSGSVRSDGEPMKGVKFLLFSSLVTKEDVLGCNVSPVPGFQPQDESLVYLCYTVSREDGSFSFYSLPSGGYTVIPFYRGERITFDVAPSRLDFTVEHDSLKIEPVFHVMGFSVTGRVLNGPEGDGVPEAVVTLNNQIKVKTKADGSFRLENITTGTYTIHAQKEHLYFETVTIKIAPNTPQLADIVATGFSVCGRISIIRFPDTVKQMNKYKVVLSSQDKDKSLVTVETDAHGSFCFKAKPGTYKVQVMVPEAETRAGLTLKPQTFPLTVTDRPVMDVAFVQFLASVSGKVSCLDTCGDLLVTLQSLSRQGEKRSLQLSGKVNAMTFTFDNVLPGKYKISIMHEDWCWKNKSLEVEVLEDDVSAVEFRQTGYMLRCSLSHAITLEFYQDGNGRENVGIYNLSKGVNRFCLSKPGVYKVTPRSCHRFEQAFYTYDTSSPSILTLTAIRHHVLGTITTDKMMDVTVTIKSSIDSEPALVLGPLKSVQELRREQQLAEIEARRQEREKNGNEEGEERMTKPPVQEMVDELQGPFSYDFSYWARSGEKITVTPSSKELLFYPPSMEAVVSGESCPGKLIEIHGKAGLFLEGQIHPELEGVEIVISEKGASSPLITVFTDDKGAYSVGPLHSDLEYTVTSQKEGYVLTAVEGTIGDFKAYALAGVSFEIKAEDDQPLPGVLLSLSGGLFRSNLLTQDNGILTFSNLSPGQYYFKPMMKEFRFEPSSQMIEVQEGQNLKITITGYRTAYSCYGTVSSLNGEPEQGVAMEAVGQNDCSIYGEDTVTDEEGKFRLRGLLPGCVYHVQLKAEGNDHIERALPHHRVIEVGNNDIDDVNIIVFRQINQFDLSGNVITSSEYLPTLWVKLYKSENLDNPIQTVSLGQSLFFHFPPLLRDGENYVVLLDSTLPRSQYDYILPQVSFTAVGYHKHITLIFNPTRKLPEQDIAQGSYIALPLTLLVLLAGYNHDKLIPLLLQLTSRLQGVGALGQAASDNSGPEDAKRQAKKQKTRRTLRLQEEFQLMWCLVPWRGTLGIHLFSSLPFASEILLETTATCIHY [NOMO2] | -0.17 | -0.401 | -0.0617 | -0.136
3 | MERGKMAEAESLETAAEHERILREIESTDTACIGPTLRSVYDGEEHGRFMEKLETRIRNHDREIEKMCNFHYQGFVDSITELLKVRGEAQKLKNQVTDTNRKLQHEGKELVIAMEELKQCRLQQRNISATVDKLMLCLPVLEMYSKLRDQMKTKRHYPALKTLEHLEHTYLPQVSHYRFCKVMVDNIPKLREEIKDVSMSDLKDFLESIRKHSDKIGETAMKQAQQQRNLDNIVLQQPRIGSKRKSKKDAYIIFDTEIESTSPKSEQDSGILDVEDEEDDEEVPGAQDLVDFSPVYRCLHIYSVLGARETFENYYRKQRRKQARLVLQPPSNMHETLDGYRKYFNQIVGFFVVEDHILHTTQGLVNRAYIDELWEMALSKTIAALRTHSSYCSDPNLVLDLKNLIVLFADTLQVYGFPVNQLFDMLLEIRDQYSETLLKKWAGIFRNILDSDNYSPIPVTSEEMYKKVVGQFPFQDIELEKQPFPKKFPFSEFVPKVYNQIKEFIYACLKFSEDLHLSSTEVDDMIRKSTNLLLTRTLSNSLQNVIKRKNIGLTELVQIIINTTHLEKSCKYLEEFITNITNVLPETVHTTKLYGTTTFKDARHAAEEEIYTNLNQKIDQFLQLADYDWMTGDLGNKASDYLVDLIAFLRSTFAVFTHLPGKVAQTACMSACKHLATSLMQLLLEAEVRQLTLGALQQFNLDVRECEQFARSGPVPGFQEDTLQLAFIDLRQLLDLFIQWDWSTYLADYGQPNCKYLRVNPVTALTLLEKMKDTSRKNNMFAQFRKNERDKQKLIDTVAKQLRGLISSHHS [EXOC6B] | 0.0917 | 0.56 | -0.17 | -0.0208
4 | MEASLGIQMDEPMAFSPQRDRFQAEGSLKKNEQNFKLAGVKKDIEKLYEAVPQLSNVFKIEDKIGEGTFSSVYLATAQLQVGPEEKIALKHLIPTSHPIRIAAELQCLTVAGGQDNVMGVKYCFRKNDHVVIAMPYLEHESFLDILNSLSFQEVREYMLNLFKALKRIHQFGIVHRDVKPSNFLYNRRLKKYALVDFGLAQGTHDTKIELLKFVQSEAQQERCSQNKSHIITGNKIPLSGPVPKELDQQSTTKASVKRPYTNAQIQIKQGKDGKEGSVGLSVQRSVFGERNFNIHSSISHESPAVKLMKQSKTVDVLSRKLATKKKAISTKVMNSAVMRKTASSCPASLTCDCYATDKVCSICLSRRQQVAPRAGTPGFRAPEVLTKCPNQTTAIDMWSAGVIFLSLLSGRYPFYKASDDLTALAQIMTIRGSRETIQAAKTFGKSILCSKEVPAQDLRKLCERLRGMDSSTPKLTSDIQGHASHQPAISEKTDHKASCLVQTPPGQYSGNSFKKGDSNSCEHCFDEYNTNLEGWNEVPDEAYDLLDKLLDLNPASRITAEEALLHPFFKDMSL [CDC7] | 2.43 | 2.74 | -0.0102 | 0.0299
5 | MLGPCMLLLLLLLGLRLQLSLGIIPVEEENPDFWNREAAEALGAAKKLQPAQTAAKNLIIFLGDGMGVSTVTAARILKGQKKDKLGPEIPLAMDRFPYVALSKTYNVDKHVPDSGATATAYLCGVKGNFQTIGLSAAARFNQCNTTRGNEVISVMNRAKKAGKSVGVVTTTRVQHASPAGTYAHTVNRNWYSDADVPASARQEGCQDIATQLISNMDIDVILGGGRKYMFRMGTPDPEYPDDYSQGGTRLDGKNLVQEWLAKRQGARYVWNRTELMQASLDPSVTHLMGLFEPGDMKYEIHRDSTLDPSLMEMTEAALRLLSRNPRGFFLFVEGGRIDHGHHESRAYRALTETIMFDDAIERAGQLTSEEDTLSLVTADHSHVFSFGGYPLRGSSIFGLAPGKARDRKAYTVLLYGNGPGYVLKDGARPDVTESESGSPEYRQQSAVPLDEETHAGEDVAVFARGPQAHLVHGVQEQTFIAHVMAFAACLEPYTACDLAPPAGTTDAAHPGRSVVPALLPLLAGTLLLLETATAP [ALPP] | -3.03 | -2.91 | -0.46 | -0.115
6 | MARTTSQLYDAVPIQSSVVLCSCPSPSMVRTQTESSTPPGIPGGSRQGPAMDGTAAEPRPGAGSLQHAQPPPQPRKKRPEDFKFGKILGEGSFSTVVLARELATSREYAIKILEKRHIIKENKVPYVTRERDVMSRLDHPFFVKLYFTFQDDEKLYFGLSYAKNGELLKYIRKIGSFDETCTRFYTAEIVSALEYLHGKGIIHRDLKPENILLNEDMHIQITDFGTAKVLSPESKQARANSFVGTAQYVSPELLTEKSACKSSDLWALGCIIYQLVAGLPPFRAGNEYLIFQKIIKLEYDFPEKFFPKARDLVEKLLVLDATKRLGCEEMEGYGPLKAHPFFESVTWENLHQQTPPKLTAYLPAMSEDDEDCYGNYDNLLSQFGCMQVSSSSSSHSLSASDTGLPQRSGSNIEQYIHDLDSNSFELDLQFSEDEKRLLLEKQAGGNPWHQFVENNLILKMGPVDKRKGLFARRRQLLLTEGPHLYYVDPVNKVLKGEIPWSQELRPEAKNFKTFFVHTPNRTYYLMDPSGNAHKWCRKIQEVWRQRYQSHPDAAVQ [PDPK1] | 1.38 | 0.777 | 0.156 | -0.222
7 | TACC1 | -4.04 | -4.77 | 0.335 | -0.0581
8 | MSRPVRNRKVVDYSQFQESDDADEDYGRDSGPPTKKIRSSPREAKNKRRSGKNSQEDSEDSEDKDVKTKKDDSHSAEDSEDEKEDHKNVRQQRQAASKAASKQREMLMEDVGSEEEQEEEDEAPFQEKDSGSDEDFLMEDDDDSDYGSSKKKNKKMVKKSKPERKEKKMPKPRLKATVTPSPVKGKGKVGRPTASKASKEKTPSPKEEDEEPESPPEKKTSTSPPPEKSGDEGSEDEAPSGED [NUCKS1] | -0.14 | 1.15 | 0.444 | 0.307
9 | MQRRRRPPPPTSRLPEGCGGGGGGSEEVEVQFSAGRWGSAAAVSAAAAAATRSTEEEEERLEREHFWKIINAFRYYGTSMHERVNRTERQFRSLPANQQKLLPQFLLHLDKIRKCIDHNQEILLTIVNDCIHMFENKEYGEDGNGKIMPASTFDMDKLKSTLKQFVRDWSETGKAERDACYQPIIKEILKNFPKERWDPSKVNILVPGAGLGRLAWEIAMLGYACQGNEWSFFMLFSSNFVLNRCSEINKYKLYPWIHQFSNNRRSADQIRPIFFPDVDPHSLPPGSNFSMTAGDFQEIYSECNTWDCIATCFFIDTAHNVIDYIDTIWKILKPGGIWINLGPLLYHFENLANELSIELSYEDIKNVVLQYGFKVEVEKESVLSTYTVNDLSMMKYYYECVLFVVRKPQ [CARNMT1] | 1.2 | 1.42 | -0.164 | -0.117
10 | ABCA2 | 0.174 | -0.253 | 0.0925 | -0.105
